# Measurements published in publication PMC9309405, “The integration of AlphaFold-predicted and crystal structures of human trans-3-hydroxy-L-proline dehydratase reveals a regulatory catalytic mechanism” (Computational and Structural Biotechnology Journal, 2022).
# B1: human trans-3-Hydroxy-L-proline dehydratase (hL3HYPDH) (Homo sapiens) (protein)
# chain: MESALAVPRLPPHDPGTPVLSVVDMHTGGEPLRIVLAGCPEVSGPTLLAKRRYMRQHLDHVRRRLMFEPRGHRDMYGAVLVPSELPDAHLGVLFLHNEGYSSMCGHAVLALGRFALDFGLVPAPPAGTREARVNIHCPCGLVTAFVACEDGRSHGPVRFHSVPAFVLATDLMVDVPGHGKVMVDIAYGGAFYAFVTAEKLGLDICSAKTRDLVDAASAVTEAVKAQFKINHPDSEDLAFLYGTILTDGKDAYTKEPTTNICVFADEQVDRSPTGSGVTARIALQYHKGLLELNQMRAFKSSATGSVFTGKAVREAKCGDFKAVIVEVSGQAHYTGTASFIIEDDDPLRDGFLLK
# notes: recombinant, cloned in pET28b, E. coli BL21(DE3), His-Trap then Superdex 200; homodimer; crystal model residues 4-354; Cys104-Cys137 intramolecular disulphide
# Substrate: O=C(O)[C@H]1NCC[C@@H]1O
# Assay: purified protein
# Assay type: biochemical, Homo sapiens
# Conditions: oxidizing conditions, without DTT; 1xPBS; substrate-inhibition fit; with 1 mM DTT a separate lower KM is reported; substrate named only hydroxyproline in methods
protein,measurement,value
B1,Km,416.7 µM
